Measured values taken from IntAct's records for PubMed 30721249.

B1: Oxysterol-binding protein-related protein 1 (Homo sapiens), Q9BXW6 (parent)
chain: MNTEAEQQLLHHARNGNAEEVRQLLETMARNEVIADINCKGRSKSNLGWTPLHLACYFGHRQVVQDLLKAGAEVNVLNDMGDTPLHRAAFTGRKELVMLLLEYNADTTIVNGSGQTAKEVTHAEEIRSMLEAVERTQQRKLEELLLAAAREGKTTELTALLNRPNPPDVNCSDQLGNTPLHCAAYRAHKQCALKLLRSGADPNLKNKNDQKPLDLAQGAEMKHILVGNKVIYKALKRYEGPLWKSSRFFGWRLFWVVLEHGVLSWYRKQPDAVHNIYRQGCKHLTQAVCTVKSTDSCLFFIKCFDDTIHGFRVPKNSLQQSREDWLEAIEEHSAYSTHYCSQDQLTDEEEEDTVSAADLKKSLEKAQSCQQRLDREISNFLKMIKECDMAKEMLPSFLQKVEVVSEASRETCVALTDCLNLFTKQEGVRNFKLEQEQEKNKILSEALETLATEHHELEQSLVKGSPPASILSEDEFYDALSDSESERSLSRLEAVTARSFEEEGEHLGSRKHRMSEEKDCGGGDALSNGIKKHRTSLPSPMFSRNDFSIWSILRKCIGMELSKITMPVIFNEPLSFLQRLTEYMEHTYLIHKASSLSDPVERMQCVAAFAVSAVASQWERTGKPFNPLLGETYELVRDDLGFRLISEQVSHHPPISAFHAEGLNNDFIFHGSIYPKLKFWGKSVEAEPKGTITLELLEHNEAYTWTNPTCCVHNIIVGKLWIEQYGNVEIINHKTGDKCVLNFKPCGLFGKELHKVEGYIQDKSKKKLCALYGKWTECLYSVDPATFDAYKKNDKKNTEEKKNSKQMSTSEELDEMPVPDSESVFIIPGSVLLWRIAPRPPNSAQMYNFTSFAMVLNEVDKDMESVIPKTDCRLRPDIRAMENGEIDQASEEKKRLEEKQRAARKNRSKSEEDWKTRWFHQGPNPYNGAQDWIYSGSYWDRNYFNLPDIY

Variants of: B1
Details: with rab7a_human RAB7A

Variant | effect of a mutation on the interaction
F58E | disrupting interaction strength
